Columns and labels:
[1] = molecular target: T1, SARS-CoV-2 receptor-binding domain (RBD) (SARS-CoV-2, UniProt P0DTC2); test: ELISA
[2] = molecular target: T1, SARS-CoV-2 receptor-binding domain (RBD); test: crystal structure

Binder | binding result [1] | binding result [2]
BG10–19 IgG1 (antibody, V domains shown) VH: EVQLVQSGAEVKKPGESLKISCKGSGYSFTSYWIGWVRQMPGKGLEWMGVIYPGDSDTRYSPSFQGQVTISADKSISTAYLQWSSLKASDTAMYYCARTQWGYNYGSHFFYMDVWGKGTTVTVSS VL: QSVLTQPPSASGTPGQRVTISCSGSSSNIGSDHVYWYQQLPGTAPKLFIYRNNQRPSGVPDRFSGSKSGTSASLAISGLRSEDEADYYCAAWDASLSGYVFGTGTKVTVL | binds | –
BG10–19 Fab (Fab, V domains shown) VH: EVQLVQSGAEVKKPGESLKISCKGSGYSFTSYWIGWVRQMPGKGLEWMGVIYPGDSDTRYSPSFQGQVTISADKSISTAYLQWSSLKASDTAMYYCARTQWGYNYGSHFFYMDVWGKGTTVTVSS VL: QSVLTQPPSASGTPGQRVTISCSGSSSNIGSDHVYWYQQLPGTAPKLFIYRNNQRPSGVPDRFSGSKSGTSASLAISGLRSEDEADYYCAAWDASLSGYVFGTGTKVTVL | binds | –
BG4–25 Fab (Fab, V domains shown) VH: EVQLVESGGGLIQPGGSLRLSCAASGITVVRNYMTWVRQAPGKGLEWVSVIYSGGTTYYADSVKGRFTISRDNSKNTMYLQMNSLRAEDTAIYYCARDLEVVGAMDVWGQGTTVTVSS VL: EIVLTQSPGTLSLSPGERATLSCRASQSVPSSYLAWYQQKPGQAPRLLIYGASSRATGIPDRFSGSGSGTDFTLTISRLEPEDFAVYYCQQYGSPMYTFGQGTKLEIK | – | binds
BG4–14 IgG1 (antibody, V domains shown) VH: not shown VL: QSALTQPASVSGSPGQSITISCTGTSSDVGSYNLVSWYQHHPGKAPKLMIYEVSKRPSGVSNRFSGSKSGNTASLTISGLQAEDETDYYCCSYAGSSTLVFGGGTKLTVL | binds | –

Source: PMC8064835 (Cell, 2021)
